Biological target: FLAG-tagged METTL3, wild type (UniProt Q8C3P7)
Assay: co-IP

Chain of UniProt Q8C3P7 (Q8C3P7 whole entry): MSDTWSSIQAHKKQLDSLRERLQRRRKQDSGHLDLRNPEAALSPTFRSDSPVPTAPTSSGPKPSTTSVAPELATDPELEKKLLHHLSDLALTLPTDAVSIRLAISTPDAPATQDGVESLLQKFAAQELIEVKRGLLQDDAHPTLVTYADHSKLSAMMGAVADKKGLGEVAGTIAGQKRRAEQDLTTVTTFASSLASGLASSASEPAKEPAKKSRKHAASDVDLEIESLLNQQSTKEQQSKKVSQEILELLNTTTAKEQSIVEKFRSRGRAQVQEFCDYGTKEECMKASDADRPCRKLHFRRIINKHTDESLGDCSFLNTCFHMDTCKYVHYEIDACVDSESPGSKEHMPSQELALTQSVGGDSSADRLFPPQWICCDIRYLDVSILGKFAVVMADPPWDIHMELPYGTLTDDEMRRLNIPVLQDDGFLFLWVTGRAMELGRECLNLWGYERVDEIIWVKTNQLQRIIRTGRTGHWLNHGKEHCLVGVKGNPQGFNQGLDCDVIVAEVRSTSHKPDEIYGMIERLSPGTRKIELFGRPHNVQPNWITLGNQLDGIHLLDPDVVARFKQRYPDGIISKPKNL

reduction of binding against wild-type p53: 50%
Substance: HA-p53 25,26,53,54 (p53 L25Q,Q26S,F53Q,F54S mutant) (from UniProt P02340 1-390) (natural protein)

— publication PMC9807187
